The source of these data is patent US20240270874A1 (JIANGSU HENGRUI PHARMACEUTICALS, published 2024).

For assay [1], the target named is T1, human KLB on CHOK1-hKLB cells (human, UniProt Q86Z14 1-1044).
T1 construct: whole, on cells; also called human KLB antigen; β-Klotho
T1 sequence (looked up): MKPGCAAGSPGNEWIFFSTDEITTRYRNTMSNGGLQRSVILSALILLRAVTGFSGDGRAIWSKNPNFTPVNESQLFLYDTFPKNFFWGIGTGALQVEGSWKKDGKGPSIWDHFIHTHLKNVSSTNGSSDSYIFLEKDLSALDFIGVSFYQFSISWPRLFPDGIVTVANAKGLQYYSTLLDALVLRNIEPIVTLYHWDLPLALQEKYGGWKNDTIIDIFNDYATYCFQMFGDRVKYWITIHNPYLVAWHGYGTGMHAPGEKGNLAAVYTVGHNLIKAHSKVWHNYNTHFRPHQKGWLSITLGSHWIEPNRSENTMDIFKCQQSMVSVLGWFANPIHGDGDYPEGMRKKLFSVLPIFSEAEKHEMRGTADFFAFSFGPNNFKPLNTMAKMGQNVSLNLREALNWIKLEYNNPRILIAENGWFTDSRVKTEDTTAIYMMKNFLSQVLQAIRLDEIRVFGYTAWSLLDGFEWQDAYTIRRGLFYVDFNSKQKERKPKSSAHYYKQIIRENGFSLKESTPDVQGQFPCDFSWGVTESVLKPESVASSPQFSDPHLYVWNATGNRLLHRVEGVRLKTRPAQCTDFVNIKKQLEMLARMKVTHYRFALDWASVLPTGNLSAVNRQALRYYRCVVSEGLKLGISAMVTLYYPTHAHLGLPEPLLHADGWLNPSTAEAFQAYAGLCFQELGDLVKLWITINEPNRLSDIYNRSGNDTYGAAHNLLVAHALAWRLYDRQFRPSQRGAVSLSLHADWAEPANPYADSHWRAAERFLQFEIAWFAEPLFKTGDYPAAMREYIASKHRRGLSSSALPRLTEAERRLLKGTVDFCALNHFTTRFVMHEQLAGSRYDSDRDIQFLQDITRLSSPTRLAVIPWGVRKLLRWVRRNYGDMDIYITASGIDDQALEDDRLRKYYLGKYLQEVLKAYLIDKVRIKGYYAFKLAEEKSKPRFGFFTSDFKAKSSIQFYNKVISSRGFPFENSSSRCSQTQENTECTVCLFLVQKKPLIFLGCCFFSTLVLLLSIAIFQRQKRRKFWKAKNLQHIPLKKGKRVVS
The assay is described as follows: flow cytometry on CHOK1-hKLB cells. Here is the method:
The binding ability of the antibodies for CHOK1 cell strains CHOK1-hKLB and CHOK1-cynoKLB overexpressing human KLB and monkey KLB (see Example 1 for specific preparation procedure), respectively, was detected by flow cytometry. The specific procedure was as follows: the above cells were cultured in 10% FBS-containing IMDM medium and incubated in an incubator at 37° C. and 5% CO₂ for 2 days. The cells were then added to a cell plate at 1×10⁵ cells per well, centrifuged at 300 g for 5 min, and then washed once with 1% BSA. The antibody diluted in gradient was added to the cell plate at 100 μL per well, and the mixture was incubated at 4° C. for 1 h and washed once with 1% BSA. The diluted (1:400) APC-goat anti-human IgG Fc fluorescent secondary antibody was added at 100 μL per well, and the resulting mixture was incubated at 4° C. for 1 h. The plate was washed three times with 1% BSA, PBS was added at 100 μL per well, and the plate was read.

Assay [2] has as its target T2, hKLB (R&D, Cat. # 5889-KB) (human, UniProt Q86Z14 53-997, limits assumed).
T2 construct: bought soluble protein; also called KLB protein; human KLB
T2 sequence (looked up): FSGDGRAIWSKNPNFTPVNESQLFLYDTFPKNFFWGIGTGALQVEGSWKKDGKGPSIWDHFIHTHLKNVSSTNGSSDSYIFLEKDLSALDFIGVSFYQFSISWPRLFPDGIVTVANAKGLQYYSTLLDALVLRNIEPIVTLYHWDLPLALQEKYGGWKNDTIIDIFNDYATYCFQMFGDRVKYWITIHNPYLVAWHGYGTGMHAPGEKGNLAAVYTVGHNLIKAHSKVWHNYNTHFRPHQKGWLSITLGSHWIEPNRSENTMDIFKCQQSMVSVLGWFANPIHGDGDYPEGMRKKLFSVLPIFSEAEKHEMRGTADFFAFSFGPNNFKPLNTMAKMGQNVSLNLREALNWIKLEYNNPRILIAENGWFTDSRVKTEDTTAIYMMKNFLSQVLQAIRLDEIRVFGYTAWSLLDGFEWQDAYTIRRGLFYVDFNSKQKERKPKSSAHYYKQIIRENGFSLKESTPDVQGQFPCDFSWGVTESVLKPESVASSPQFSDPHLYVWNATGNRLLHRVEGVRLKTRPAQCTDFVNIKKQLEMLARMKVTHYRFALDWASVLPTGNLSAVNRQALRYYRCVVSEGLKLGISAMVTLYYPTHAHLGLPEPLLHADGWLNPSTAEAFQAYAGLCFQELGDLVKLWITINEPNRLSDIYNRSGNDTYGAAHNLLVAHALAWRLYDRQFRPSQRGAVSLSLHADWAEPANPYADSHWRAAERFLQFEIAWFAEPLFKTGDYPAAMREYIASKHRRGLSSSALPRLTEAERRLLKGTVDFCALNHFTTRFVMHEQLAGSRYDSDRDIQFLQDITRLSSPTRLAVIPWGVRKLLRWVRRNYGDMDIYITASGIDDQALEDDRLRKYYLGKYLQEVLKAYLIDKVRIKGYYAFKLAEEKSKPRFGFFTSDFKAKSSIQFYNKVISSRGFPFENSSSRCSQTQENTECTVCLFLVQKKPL
In words: SPR (Biacore T200), antibody captured on Protein A chip, hKLB as analyte, 1:1 model. The text has this: A Protein A biosensor chip (Cat. # 29127556, GE) was allowed to affinity capture an antibody, and then a certain concentration of hKLB (R&D, Cat. # 5889-KB) was allowed to flow through the surface of the chip. The reaction signals were detected in real time using a Biacore T200 instrument to obtain an association and dissociation curve. After dissociation was complete in each experiment cycle, the biosensor chip was washed with Glycine1.5 (Cat. # BR-1003-54, GE) for regeneration. The data were fitted using a 1:1 model to obtain antibody affinity data, and the specific experimental results are shown in Table 10 below.

B1: hAb18-8 (antibody, human IgG1, kappa, L234A L235A, V domains shown)
VH: EVQLVQSGAEVKKPGASVKVSCKASGYTFTDYAMHWVRQAPGQRLEWMGVISTYSGTTNYNQNFKGRVTITVDKSASTAYMELSSLRSEDTAVYYCARSGPLDYWGQGTTVTVSS
VL: ENVLTQSPDFQSVTPKEKVTITCRATSSVSSSYLHWYQQKPDQSPKLWIYSTSQLASGVPSRFSGSGSGTDYTLTINSLEAEDAATYYCQQYSGYPLTFGQGTKLEIKR
notes: human IgG1 (L234A, L235A) / kappa
In general, EC50 refers to the concentration needed to bring the measured effect to its halfway point. A high value points to weaker potency. For orientation: Kd means the concentration at which binding is half-saturated. As usually defined, the koff is the rate constant with which the complex falls apart. High values mean a short-lived complex, low ones a long-lived complex. The term kon denotes the second-order rate constant of association. A high value points to fast association. Regarding B1, in assay [1], a half-maximal effect (EC50) was put at 1.93 nM. In assay [2], the affinity, expressed as Kd, was 0.977 nM; the koff is 0.000103 s⁻¹; the kon was determined as 106000 M⁻¹ s⁻¹.

B2: hAb-23 (antibody, human IgG1, kappa, L234A L235A, V domains shown)
VH: QVQLVQSGAEVKKPGSSVKVSCKASGGTFSSYAISWVRQAPGQGLEWMGGIIPIFGTANYAQKFQGRVTITADESTSTAYMELSSLRSEDTAVYYCARELVSYYYGMDVWGQGTMVTVSS
VL: not shown
notes: from a human natural phage library; human IgG1 (L234A, L235A) / kappa; also called fully human antibody hAb-23
On to B2, for which a half-maximal effect in assay [1] (EC50) was put at 0.39 nM. In assay [2], this molecule displayed a Kd of 0.199 nM, a koff of 4.91e-05 s⁻¹ and a kon of 247000 M⁻¹ s⁻¹.

B3: hAb99-13 (antibody, human IgG1, kappa, L234A L235A, V domains shown)
VH: EVQLVQSGAEVKKPGASVKVSCKASGYTFTNYGINWVRQAPGQRLEWMGYIYIGNVDIEYNAKFKGRVTITSDTSASTAYMELSSLRSEDTAVYYCARGRGLGHFDVWGQGTTVTVSS
VL: DIQMTQSPSSLSASVGDRVTITCRASKSISKFLAWFQQKPGKTNKLLIYSGSTLQSGVPSRFSGSGSGTDFTLTISSLQPEDFATYYCQQHNEYPWTFGGGTKVEIKR
notes: as for B1
In the case of B3, the response in assay [1] was half-maximal at 0.44 nM (EC50). In assay [2], this molecule had a Kd of 2.1 nM, a koff of 0.000626 s⁻¹ and a kon of 298000 M⁻¹ s⁻¹.
